These results are taken from the DeepSol protein solubility set.

The nature of the data set: soluble on expression in E. coli; label from the status in PepcDB or PDB records.
In the case of “MAHHHHHHMTTADDVCGAYTLSHCDGKVAPTKATLTIHRCGEILTAHVTVVNDLRGTVQYENCHIVGSLHSTGNEASPAQESVEQALSKGFADGFNVVVEMNQVLLKNANSAFVFARLSKLSDLNGEHAIIAINDQPPNQEMTMIFTPDGNGGSFVAANIANSLRGNCQIDAGLLRGDLATTQSEADESLMQVEKLISEGFQQGFHVCMNESGILLQSSEANIQLCRIVSHSDLEGEYVLKSFNGAPVPTRNQPSIVFKSVNTNEVEISIVVANRIRGTAALNQNVLSSEEPLMSTRMMGTEEESQLENAFNVGFQYGLETISHGNELTLKNQDCKFVLVKAAAPAAQHGGPTYKGTYCNKCFKTEGNGLLFRIVNEHEKKWAFYNDTEDLRIRVRATFGARSKIEALDNANMYKDDDGRYVVEVTVDPQATEMFIQGDVNGFRVLYDAQPI”, the “soluble on expression in E. coli” value is recorded as “not soluble”. Under “MAHHHHHHMTVVQEAIRVTSATPQPCGAADDVLAMKTLSPHDKVRRYMEEQECRHVPPTDATPEVASSEGGHDDALPGQHEDGDGEINHKIVPFTGEPGPDARERVPDRQKEKKKQKKQQAPRKRKHRSECAGREADDPLLLFRRSQKALRTEARHVNMKEVLSRSLSGVFDGLGEASNPFSPAAGSQSSSAWSPLVANSITSQFLSNVQQRKKQTFERLLQKEIANSQLSTSRLTPDDGEPDDRIPELVIGDETAVMEPPSMGHDALLMDAGTTSSQADTLLMGNTTSRGFVELDEEAEQAQSEALMRKHELWRLRQKHLRERLRAEESIPQLKRGDHQASLRGQPQTTVPMNFVTQSTSSLSTARGTTADVDGPTETLVLAHCSIIQQSQSLALGLSADHIEMIRRANNFDNTSSQRLVVFETKSRMKREGLAHLQQ” stands “not soluble”; under “MAHHHHHHMVLTSDRGWPYSWERGESGILPDCYLNSEVERVWQIVKKDLTKLFSSHGKNKPSCHPRVLIGTPGIGKSMNVGSYLLYQLLHYDVEQLPMVVYFIANLTFLFDKTAKMVSLYTNEASILRILDGLPDRGFKGHIIYDVAMKGHQPSIGLPCKGWGMIVVTPPDKNNHEWWAKQMGAEEFIINCPEENDVRAMCIWMKRNRPLQEQAEYWKEVNGRMNKVGPILRFIFGKQAYDDRIKACQQALDGMNASKFEGYLDIGYCCVSNDSDLSRKLVKVVRVRRGYNFASPLNVLISPHLERETLSRLEDGMKQSDFIFFVLRFWDYVPPYLIEKYAVSAFLNDDFLRAIRLKIKELWPPGRRESHRCALKEHSDTSFARKEVLPPPERLSNPVAMDHWVLYEPKVQNFPLVDGFFFVDSNPKTLVGLRMTTAGGHRTTTRTVRRFTE”, “not soluble”. To “MAHHHHHHMWAKYSSSAVEEASKQAKSFATYPSSTPDMSGDEKEAFHETNSRDAFTVALLKHVARNLGVQYMGDRVETSDSIVMDKLGRIKAEIRSRERLLGVENMGLIPLFIEAGDSSLTCEDSLIYYKKALDIVEANKDIKRDSNMMNDVGVSSFADLGSRFFRYGQYQVAERLFTMAAAISRDKVTGVAEEISFSTAQCGSQKSLQRLKGHLWDWKKAAEAANEDLSTLLSDATRNTHRFREMRDACSQTDLAEHRVAMPASQFIGTKREMKGLKGTRNGEELKRLVEYVFDPMSVEDGFTRQLLPKGSRNTTRLLSEHFTGSNPCLALRESIDCITSRIGAKADSINSSGGALRRELQTR” belongs “not soluble”.

Consider “MAHHHHHHMWDPFRDIDRIFNRVLPLTGAGSFSSFSRGSWSPAMDLVEKPEGYKLLVDLPGMNREDIQVGIEDNRLCISGNRKSLLKDDEQHLAVFLERGYGRFERCMNLPSPIVEESVKARLRDSVLVVELKKNNSPASSAATSVTIQ”, for which the “soluble on expression in E. coli” value is “soluble”.

As for “MAHHHHHHMYKYEKLYFFMCWKKCRFNNLTKVFLHSSNDYYNNLNVIKKEKGIFEKLLCIGNYNVDNFCFDKELYEKYRECIKNDYEKIRIKLKERKQNEYNNIHSKNLEHNESNICNNNNNNNINVYESYLYNIIQNNDYKDILISDVIYENGKNILCIGEANLSFSLLLQKNLNLCKVVSTSREDESVLIKKFGKKYFSKNLKLLESSGGIYIPNMNVENLSNQFLKNTFDIIIFNFPFVLPTKECIEKKWNIKLEREEIYSDNLKNETNSNNNSNSNNNNKSNNNNGNNNSSNNVYIKYYKKTEYFLLNKLIYHLFKCASHLLKNEGFLHIRLNDKYLTCSFPKNMSLSFLQKIDFSNSYIIYKSLKYVPSLFDCTFLNYEDKKKEKTKNNVIFTSSGKKIFKSFKMKHTSTLIFQKI”, the “soluble on expression in E. coli” value is “not soluble”.
